Reference: patent US20210155689A1 (SHANGHAI PHARMAEXPLORER, published 2021)

How the values were obtained:
[1] = target: T1, human LAG-3 on cells (HEK293-hLAG-3 stable cell line) (human, UniProt P18627 23-525); assay: FACS, HEK293-hLAG-3, antibody 1.600 nM
T1 sequence: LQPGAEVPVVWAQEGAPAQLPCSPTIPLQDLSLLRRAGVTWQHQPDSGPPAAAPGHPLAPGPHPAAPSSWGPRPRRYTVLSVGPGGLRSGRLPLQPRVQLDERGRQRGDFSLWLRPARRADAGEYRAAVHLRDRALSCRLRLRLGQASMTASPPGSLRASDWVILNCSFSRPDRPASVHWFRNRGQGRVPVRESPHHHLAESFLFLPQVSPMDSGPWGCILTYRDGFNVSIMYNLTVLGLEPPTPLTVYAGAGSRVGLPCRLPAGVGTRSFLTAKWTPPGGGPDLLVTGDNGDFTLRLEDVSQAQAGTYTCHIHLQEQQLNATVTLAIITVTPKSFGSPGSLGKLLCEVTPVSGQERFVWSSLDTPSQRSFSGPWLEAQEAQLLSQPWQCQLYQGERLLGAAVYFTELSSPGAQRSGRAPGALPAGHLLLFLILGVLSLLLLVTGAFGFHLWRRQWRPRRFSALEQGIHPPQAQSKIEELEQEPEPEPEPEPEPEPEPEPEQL
From the text: (§1) The pIRES plasmid with the monkey-derived full-length gene was transfected into the HEK293 cell line to construct a HEK293 stable cell line containing monkey LAG-3 (herein referred to as HEK293-cLAG-3 stable cell line). The HEK293-hLAG-3 stable cell line and HEK293-cLAG-3 stable cell line were expanded in a T-75 cell culture flask to a 90% confluence. The medium was aspirated, and the cells were washed with HBSS (Hanks' Balanced Salt Solution) 1-2 times, then treated with a enzyme-free cell dissociation fluid (Versene solution: Life technology) and the cells were collected. The cells were washed with HBSS buffer for 1-2 times. After counted, the cells were diluted with HBSS to 1-2×10⁶ cells per ml, added with 1% goat serum blocking solution, incubated on ice for 20-30 minutes, and then washed with HBSS for 2 times by centrifugation. The collected cells were suspended in the FACS buffer (HBSS+1% BSA) to 2×10⁶ cells/ml, added as 100 microliters per well to a 96-well FACS reaction plate, added with 100 microliters per well of the antibody sample to be tested, incubated on ice for 1-2 hours. The plate was washed twice with the FACS buffer by centrifugation, added with 100 microliters of fluorescent (Alexa 488)-labeled secondary antibodies per well, and incubated on ice for 0.5-1.0 hours. The plate was washed 2-3 times with FACS buffer by centrifugation, added with 100 μl fixative solution (4% Paraformaldehyde) per well to suspend the cells. 5-10 minutes later, it was washed 1-2 times with FACS buffer by centrifugation. The cells were suspended with 100 microliters of FACS buffer, FACS (FACSCalibur, BD) was used for detection and the results were analyzed.

[2] = target: T1, human LAG-3 on cells (HEK293-hLAG-3 …); assay: FACS, HEK293-hLAG-3, antibody 40.000 nM
From the text: as §1

[3] = target: T1, human LAG-3 on cells (HEK293-hLAG-3 …); assay: FACS, HEK293-hLAG-3, antibody 0.013 nM
From the text: as §1

[4] = target: T2, monkey LAG-3 on cells (HEK293-cLAG-3 stable cell line) (monkey, UniProt P18627 24-525 (human entry)); assay: FACS, HEK293-cLAG-3, antibody 0.013 nM
T2 construct: Full-length monkey (Chinese monkey) LAG-3 gene expressed on HEK293 cells
T2 chain: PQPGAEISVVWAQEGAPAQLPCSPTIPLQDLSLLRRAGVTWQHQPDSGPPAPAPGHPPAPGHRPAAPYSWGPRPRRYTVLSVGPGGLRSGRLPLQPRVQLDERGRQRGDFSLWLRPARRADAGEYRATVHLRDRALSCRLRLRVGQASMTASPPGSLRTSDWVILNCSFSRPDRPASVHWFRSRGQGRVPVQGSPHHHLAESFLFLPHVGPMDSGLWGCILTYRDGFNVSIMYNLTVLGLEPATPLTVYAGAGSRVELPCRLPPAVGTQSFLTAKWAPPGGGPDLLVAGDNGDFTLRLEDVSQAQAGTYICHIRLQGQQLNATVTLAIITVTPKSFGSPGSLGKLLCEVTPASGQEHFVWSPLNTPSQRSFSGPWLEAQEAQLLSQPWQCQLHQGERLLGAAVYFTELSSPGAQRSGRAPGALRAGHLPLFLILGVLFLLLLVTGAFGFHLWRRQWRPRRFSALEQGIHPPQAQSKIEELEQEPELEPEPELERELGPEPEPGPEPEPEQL
From the text: as §1

[5] = target: T3, mouse LAG-3 protein with hFc tag (mLAG-3-hFc protein) (mouse; human, UniProt Q61790 24-442); assay: ELISA, mLAG-3-hFc coated; 6.6667 nM
T3 construct: Made in HEK293 cells; also called mouse LAG-3 extracellular domain protein; not shown: human IgG Fc fragment (hFc) of the pCpC vector
T3 sequence: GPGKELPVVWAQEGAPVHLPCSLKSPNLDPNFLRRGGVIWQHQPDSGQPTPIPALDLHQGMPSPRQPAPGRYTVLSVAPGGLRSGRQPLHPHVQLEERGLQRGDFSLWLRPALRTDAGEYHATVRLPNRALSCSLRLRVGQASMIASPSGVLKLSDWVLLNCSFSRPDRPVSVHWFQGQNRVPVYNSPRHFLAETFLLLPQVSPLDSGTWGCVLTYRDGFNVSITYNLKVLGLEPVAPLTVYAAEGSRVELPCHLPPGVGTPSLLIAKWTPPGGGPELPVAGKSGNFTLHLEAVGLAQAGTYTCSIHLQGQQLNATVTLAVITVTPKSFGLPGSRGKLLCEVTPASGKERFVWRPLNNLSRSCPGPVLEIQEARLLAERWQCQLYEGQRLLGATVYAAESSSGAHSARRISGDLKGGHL
Procedure: The plate was sealed with plastic film and incubated overnight at 4° C. The plate was washed 2 times with the plate washing solution (PBS+0.01% Tween20) on the next day, and added with the blocking solution (PBS+0.01% Tween20+1% BSA) and blocked at room temperature for 1-2 hours. The blocking solution was poured out, and the plate was added with 50-100 μl of the antibody sample to be tested to each well, incubated at 37° C. for 1-2 hours, and washed 2-3 times with a plate washing solution (PBS+0.01% Tween20). HRP (horseradish peroxidase) labeled secondary antibody was added, and the plate was incubated at 37° C. for 1-2 hours, and washed 2-3 times with a plate washing solution (PBS+0.01% Tween20). 100 μl of TMB substrate was added to each well. After incubated at room temperature for 15-30 minutes, the plate was added with 100 μl of stop solution (1.0N HCl) to each well.

B1: 556F6B8 mouse-human chimeric antibody (antibody, V domains shown)
VH: RVQLKQSGPGLVQPSQSLSITCTVSGFSLIKYGVHWVRQSPGEGLEWLGVIWRGGITDYNAAFMSRLSITKDNSKSQVFFKMNSLQADDTAIYYCAKWDGPLAMDYWGQGTSVTVSS
VL: DIVMTQSHKFLSTSVGDRVSITCKASQDVGTTVAWYQQKPGQSPKLLIYWASTRHTGVPDRFTGSGSGTDFTLTISNVQSEDLADYFCQQYSSYPYTFGGGTKLEIK
notes: also called mAb123-556F6B8; 556F8B8
Q: For B1, which Mean fluorescence intensity [1] is on record?
A: 39.1

Q: What about the Mean fluorescence intensity [2] of the same binder?
A: 123

Q: What about the Mean fluorescence intensity [3] of the same binder?
A: 4.2

Q: What about the Mean fluorescence intensity [4] of the same binder?
A: 3.46

B2: 556F6B8 (LAG-3 mouse-human chimeric antibody) (antibody, V domains shown)
VH: RVQLKQSGPGLVQPSQSLSITCTVSGFSLIKYGVHWVRQSPGEGLEWLGVIWRGGITDYNAAFMSRLSITKDNSKSQVFFKMNSLQADDTAIYYCAKWDGPLAMDYWGQGTSVTVSS
VL: DIVMTQSHKFLSTSVGDRVSITCKASQDVGTTVAWYQQKPGQSPKLLIYWASTRHTGVPDRFTGSGSGTDFTLTISNVQSEDLADYFCQQYSSYPYTFGGGTKLEIK
notes: also called 556F8B8
Q: Which OD450 [5] does the source give for B2 here?
A: 0.36 OD450

B3: 105F1E10 mouse-human chimeric antibody (antibody, V domains shown)
VH: EVQLQQSGPELVKPGASVKMSCRASGYTFTDFKMHWMKQSHGKSLEWIGYIAPNNGGTAYNQKFRGKATLTVNESSNTAYMELRSLTSEDSAVYYCVDWDDVDYWGQGTTLTVSS
VL: DIKMTQSPSSMYASLGERVTITCKASQDINSYLSWFQQKSGKSPKTLIYRANRLVDGVPSRFSGSGSGQDYSLTISSLEYEDMGIYYCLQYVEFPLTFGAGTKLELK
notes: also called mAb009-105F1E10
Q: Which Mean fluorescence intensity [1] does the source give for B3 here?
A: 34.7

Q: And the Mean fluorescence intensity [2]?
A: 146

Q: And the Mean fluorescence intensity [3]?
A: 3.6

Q: What about the Mean fluorescence intensity [4] of the same binder?
A: 2.89

B4: 405B8H3 mouse-human chimeric antibody (antibody, V domains shown)
VH: QVQLQQSGAELVRPGASVTLSCKASGYTFTDYEMHWVKQTPVHGLEWIGATDPETGNSAYNQKFKGKAIMTADKSSSTAYMELRSLTSEDSAVYYCISTGWNDWGQGTSLTVSS
VL: DIKMTQSPSSMYASLGERVTITCKASQDINSYLSWFQQKPGKSPKTLIYRADRLLDGVPSRFSGSGSGQDYSLTISSLEYGDMGIYYCLQYDEFPYTFGGGTKLEIK
notes: also called mAb103-405B8H3
Q: Which Mean fluorescence intensity [1] does the source give for B4 here?
A: 62.3

Q: What about the Mean fluorescence intensity [2] of the same binder?
A: 158

Q: What about the Mean fluorescence intensity [3] of the same binder?
A: 4

Q: And the Mean fluorescence intensity [4]?
A: 3.52

B5: 405B8H3 (LAG-3 mouse-human chimeric antibody) (antibody, V domains shown)
VH: QVQLQQSGAELVRPGASVTLSCKASGYTFTDYEMHWVKQTPVHGLEWIGATDPETGNSAYNQKFKGKAIMTADKSSSTAYMELRSLTSEDSAVYYCISTGWNDWGQGTSLTVSS
VL: DIKMTQSPSSMYASLGERVTITCKASQDINSYLSWFQQKPGKSPKTLIYRADRLLDGVPSRFSGSGSGQDYSLTISSLEYGDMGIYYCLQYDEFPYTFGGGTKLEIK
notes: also called mouse-human chimeric antibody 405B8H3
Q: How did the OD450 [5] turn out when B5 was run?
A: 0.34 OD450

B6: 105F1E10 (LAG-3 mouse-human chimeric antibody) (antibody, V domains shown)
VH: EVQLQQSGPELVKPGASVKMSCRASGYTFTDFKMHWMKQSHGKSLEWIGYIAPNNGGTAYNQKFRGKATLTVNESSNTAYMELRSLTSEDSAVYYCVDWDDVDYWGQGTTLTVSS
VL: DIKMTQSPSSMYASLGERVTITCKASQDINSYLSWFQQKSGKSPKTLIYRANRLVDGVPSRFSGSGSGQDYSLTISSLEYEDMGIYYCLQYVEFPLTFGAGTKLELK
Q: B6 was tested. Which OD450 [5] did it give?
A: 0.14 OD450

B7: 409D4E10 mouse-human chimeric antibody (antibody, V domains shown)
VH: QVQLQQSGAELVRPGASVTLSCKASGNTFTDYEMHWVKQTPVHGLEWIGATDPETDNTAYNQKFKGKAILTTDKSSSTAYMELRSLTSEDSAVYYCITSGWNDWGQGTSLTVSS
VL: DIKMTQSPSSMYASLGERVTITCKASQDINSYLSWFQQKPGKSPKTLIYRANRLLDGVPSRFSGSGSGQDYSLTISSLEYEDMGIYYCLQYNEFPYTFGGGTKLEIK
notes: also called mAb112-409D4E10
Q: What does the source list for B7?
A: Mean fluorescence intensity [1]: 56.8; Mean fluorescence intensity [2]: 140; Mean fluorescence intensity [3]: 4; Mean fluorescence intensity [4]: 3.36

B8: 409B11E12 mouse-human chimeric antibody (antibody, V domains shown)
VH: QVQLQQSGAELVRPGASVTLSCKASGYTFTDYEMHWVKQTTVHGLEWIGATDPETSYSAYNQKFKGKAILTADKSSSTAYMELRSLTSEDSAVYYCIATGWNDWGQGTSLTVSS
VL: DLKMTQSPSSMYASLGERVTITCKASQDINSYLSWFQQKPGKSPKTLIYRANRLLDGVPSRFSGSGSGQDYSLTISSLEYEDMGIYYCLQYDEFPYTFGGGTKLEIK
notes: also called mAb104-409B11E12
Q: Which Mean fluorescence intensity [1] does the source give for B8 here?
A: 69

Q: What about the Mean fluorescence intensity [2] of the same binder?
A: 150

Q: And the Mean fluorescence intensity [3]?
A: 4.1

Q: What about the Mean fluorescence intensity [4] of the same binder?
A: 3.39

B9: 409D4E10 (LAG-3 mouse-human chimeric antibody) (antibody, V domains shown)
VH: QVQLQQSGAELVRPGASVTLSCKASGNTFTDYEMHWVKQTPVHGLEWIGATDPETDNTAYNQKFKGKAILTTDKSSSTAYMELRSLTSEDSAVYYCITSGWNDWGQGTSLTVSS
VL: DIKMTQSPSSMYASLGERVTITCKASQDINSYLSWFQQKPGKSPKTLIYRANRLLDGVPSRFSGSGSGQDYSLTISSLEYEDMGIYYCLQYNEFPYTFGGGTKLEIK
Q: Which OD450 [5] does the source give for B9 here?
A: 0.23 OD450

B10: 409B11E12 (LAG-3 mouse-human chimeric antibody) (antibody, V domains shown)
VH: QVQLQQSGAELVRPGASVTLSCKASGYTFTDYEMHWVKQTTVHGLEWIGATDPETSYSAYNQKFKGKAILTADKSSSTAYMELRSLTSEDSAVYYCIATGWNDWGQGTSLTVSS
VL: DLKMTQSPSSMYASLGERVTITCKASQDINSYLSWFQQKPGKSPKTLIYRANRLLDGVPSRFSGSGSGQDYSLTISSLEYEDMGIYYCLQYDEFPYTFGGGTKLEIK
Q: With B10 as the binder, how does the OD450 [5] read?
A: 0.31 OD450
